In US20090098106A1 (YEDA RESEARCH AND DEVELOPMENT, published 2009):

T1: TRAF2 (UniProt Q12933 1-501, limits assumed)
T1 sequence (looked up): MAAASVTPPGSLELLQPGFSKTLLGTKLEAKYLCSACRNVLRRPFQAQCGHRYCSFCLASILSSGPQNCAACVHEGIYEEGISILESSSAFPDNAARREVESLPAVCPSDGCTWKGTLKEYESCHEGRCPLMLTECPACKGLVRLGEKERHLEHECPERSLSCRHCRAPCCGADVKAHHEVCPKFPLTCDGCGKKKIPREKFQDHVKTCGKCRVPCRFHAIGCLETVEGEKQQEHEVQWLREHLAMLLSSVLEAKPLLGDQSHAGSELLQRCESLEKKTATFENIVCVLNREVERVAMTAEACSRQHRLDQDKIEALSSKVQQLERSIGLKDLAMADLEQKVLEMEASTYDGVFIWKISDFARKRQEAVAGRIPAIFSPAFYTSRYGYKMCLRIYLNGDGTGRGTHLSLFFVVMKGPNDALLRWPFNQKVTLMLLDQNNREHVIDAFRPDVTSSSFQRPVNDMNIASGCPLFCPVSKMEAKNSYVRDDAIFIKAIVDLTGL

B1: NIK-N terminus (amino acids 1-367) (other)
chain: MAVMEMACPGAPGSAVGQQKELPKPKEKTPPLGKKQSSVYKLEAVEKSPVFCGKWEILNDVITKGTAKEGSEAGPAAISIIAQAECENSQEFSPTFSERIFIAGSKQYSQSESLDQIPNNVAHATEGKMARVCWKGKRRSKARKKRKKKSSKSLAHAGVALAKPLPRTPEQESCTIPVQEDESPLGAPYVRNTPQFTKPLKEPGLGQLCFKQLGEGLRPALPRSELHKLISPLQCLNHVWKLHHPQDGGPLPLPTHPFPYSRLPHPFPFHPLQPWKPHPLESFLGKLACVDSQKPLPDPHLSKLACVDSPKPLPGPHLEPSCLSRGAHEKFSVEEYLVHALQGSVSSSQAHSLTSLAKTWAARGSRS
notes: Yeast two-hybrid bait in pGBKT7
B2: NIK kinase domain (kinase motif, amino acids 400-650) (other)
chain: ATHQLRLGRGSFGEVHRMEDKQTGFQCAVKKVRLEVFRAEELMACAGLTSPRIVPLYGAVREGPWVNIFMELLEGGSLGQLVKEQGCLPEDRALYYLGQALEGLEYLHSRRILHGDVKADNVLLSSDGSHAALCDFGHAVCLQPDGLGKSLLTGDYIPGTETHMAPEVVLGRSCDAKVDVWSSCCMMLHMLNGCHPWTQFFRGPLCLKIASEPPPVREIPPSCAPLTAQAIQEGLRKEPIHRVSAAELGGK
notes: also called kinase motif of NIK
B3: HC8 (α7) subunit of the human 20S proteasome (other, UniProt P25788 1-255, looked up)
chain: MSSIGTGYDLSASTFSPDGRVFQVEYAMKAVENSSTAIGIRCKDGVVFGVEKLVLSKLYEEGSNKRLFNVDRHVGMAVAGLLADARSLADIAREEASNFRSNFGYNIPLKHLADRVAMYVHAYTLYSAVRPFGCSFMLGSYSVNDGAQLYMIDPSGVSYGYWGCAIGKARQAAKTEIEKLQMKEMTCRDIVKEVAKIIYIVHDEVKDKAFELELSWVGELTNGRHEIVPKDIREEAEKYAKESLKEEDESDDDNM
notes: Yeast two-hybrid: prey from a human bone marrow library, re-cloned into pGADT7; Co-immunoprecipitation: N-terminal HIS tag and/or C-terminal myc tag (pCDNA3); also called human C8

Experiments:
[1] = molecular target: B3; assay: yeast two-hybrid, β-gal colour, strain SFY526 (bait NIK-N-ter, prey HC8)
Source text: (§1) Yeast 2 Hybrid Screening Assays: NIK or its deletions were cloned into pGBKT7 vector as bait and the preys were re-cloned into pGADT7 vector for assay in the yeast strain SFY526. The system used for screening was the Matchmaker version III (clontech). The prey was pretransformed human bone marrow library (cat# HY4053AH) pooled from 51 males/females in the age range 22-70. It belongs to a new generation of 2 hybrid libraries that offers high stringent quadruple drop out (QDO) selection along with α-gal assay. Clones growing on plates without LEU, TRP, HIS and ADE were reconfirmed by α-gal assay. Plasmids of the positive clones were prepared by lysis of the yeast cells with detergent and mechanical stress followed by phenol extraction and ethanol precipitation of the DNA. Encoded inserts from the plasmids were amplified by PCR with the primers specific for the library vector pACT2.
(§2) A yeast 2 hybrid screening was effected using intact NIK cDNA (GenBank Accession No. Y10256; SEQ ID NO: 5), NIK-C-terminus (amino acids 624-947 of SEQ ID NO: 5) or NIK-N terminus (amino acids 1-367) as a prey. The most prevalent prey which was found in these screenings was the α7 subunit (HC8) (GenBank Accession No. XM_{—}050947). […]

TRAF2 = molecular target: T1, TRAF2; assay: yeast two-hybrid, β-gal colour, strain SFY526
[2] = molecular target: B3; assay: co-immunoprecipitation from HeLa cells with anti-NIK monoclonal antibody, Western blot
[3] = molecular target: T2, NF-κB inducing kinase (NIK), human, full length (human, UniProt Q99558 1-947); assay: yeast two-hybrid, β-gal colour, strain SFY526 (bait NIK, prey HC8)
T2 construct: Yeast two-hybrid: cloned into pGBKT7 as bait (fusion partner not spelled out); Co-immunoprecipitation: N-terminal 6 myc tag (pCS3MTNIK) in 293T cells, or His tag in HeLa cells; also called intact NIK; wild type NIK
Source text: as §1, §2

[4] = molecular target: T3, NIK-C-terminus (amino acids 624-947 of SEQ ID NO: 5) (human, UniProt Q99558 624-947); assay: yeast two-hybrid, β-gal colour, strain SFY526 (bait NIK-C-ter, prey HC8)
T3 construct: Yeast two-hybrid bait in pGBKT7 (fusion partner not spelled out)
T3 sequence (Q99558 624-947): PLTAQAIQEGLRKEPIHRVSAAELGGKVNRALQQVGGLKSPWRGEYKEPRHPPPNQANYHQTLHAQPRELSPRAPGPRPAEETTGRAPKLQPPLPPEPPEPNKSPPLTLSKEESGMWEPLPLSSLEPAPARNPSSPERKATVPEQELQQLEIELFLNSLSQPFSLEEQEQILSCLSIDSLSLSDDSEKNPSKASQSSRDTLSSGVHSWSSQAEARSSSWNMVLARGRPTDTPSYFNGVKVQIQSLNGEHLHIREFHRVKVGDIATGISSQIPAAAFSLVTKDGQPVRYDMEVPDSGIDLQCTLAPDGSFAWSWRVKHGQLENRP
Source text: as §1, §2

Binder: B1
binding result [1]: binds | binding result (TRAF2): no binding

Binder: B2
binding result [2]: no binding

Binder: B3
binding result [3]: binds | binding result [4]: binds
